Experimental data: article PMC5123727 (International Journal of Nanomedicine, 2016)
Entries after “also recorded” stand apart in the source; their conditions may differ. Peptide text beside a SMILES is read from it. * marks the point of attachment. X1 = CCc1c2c(nc3ccc(OC(=O)[C@H]4CC[C@H](CNC(=O)[C@H]5CC[C@H](CN6C(=O)CC(*)C6=O)CC5)CC4)cc13)-c1cc3c(c(=O)n1C2)COC(=O)[C@]3(O)CC

How the values were obtained:
[1] = tested on: human basophils; conditions: in vitro, preclinical, ref not given; cited from earlier work
[2] = tested on: dog basophils; conditions: in vitro, preclinical, ref not given; cited from earlier work
[3] = Phase I dose escalation: toxicity; format: in vivo, human; conditions: for Other toxicities: Type of toxicity and grade: UR unrelated, R probably related
[4] = tested on: advanced or metastatic solid tumors; assay: Tumor response; format: in vivo, human
[5] = tested on: cardiac repolarization; assay: Cardiovascular effects: QRS and QTc intervals; format: in vivo, human
[6] = dogs, 4.5–53 mg free base/kg; preclinical, ref not given; cited from earlier work
[7] = Solubility in water; format: physicochemical
[8] = Phase I plasma pharmacokinetics of DTS-108, SN-38 and SN-38G; format: in vivo; conditions: human, iv
[9] = dose 313 mg/m^2, Hyperbilirubinemia (UR)
[10] = drug-related, repeated dosing, all doses, n=42

CCc1c2c(nc3ccc(OC(=O)[C@H]4CC[C@H](CNC(=O)[C@H]5CC[C@H](CN6C(=O)CC(SC[C@H](N)C(=O)N[C@H](C(=O)N[C@@H](CCCCN)C(=O)N[C@@H](CCCNC(=N)N)C(=O)NCC(=O)N[C@@H](CC(C)C)C(=O)N[C@@H](CCCCN)C(=O)N[C@@H](CC(C)C)C(=O)N[C@@H](CCCNC(=N)N)C(=O)N[C@@H](Cc7c[nH]cn7)C(=O)N[C@H](C(=O)N[C@@H](CCCNC(=N)N)C(=O)N7CCC[C@H]7C(=O)N[C@@H](CCCNC(=N)N)C(=O)N[C@H](C(=O)N[C@H](C(=O)N[C@@H](CCCNC(=N)N)C(=O)N[C@@H](CCSC)C(=O)N[C@@H](CC(=O)O)C(=O)N[C@H](C(=O)O)C(C)C)[C@@H](C)O)C(C)C)C(C)C)C(C)C)C6=O)CC5)CC4)cc13)-c1cc3c(c(=O)n1C2)COC(=O)[C@]3(O)CC (stereo partly drawn) [DTS-108] (H-C(X1)VKRGLKLRHVRPRVTRMDV-OH)
histamine release [1]: histamine release induced | histamine release [2]: histamine release induced | patients with Grade 3 neutropenia ([3]; 235 mg/m^2): one of four | patients with Grade 3 neutropenia ([3]; 313 mg/m^2): four of six | patients with no dose-limiting neutropenia ([3]; 313 mg/m^2): five of the six | patients with Grade 3 neutropenia ([3]; 416 mg/m^2): four of six | patients with dose reductions to 313 mg/m^2 ([3]; 416 mg/m^2): three of six | patients with grade 4 neutropenia ([3]; 416 mg/m^2): three out of six | patients with infusion reactions ([3]; Cohort 11, 177 mg/m^2): all three | nephrotoxicity ([3]; all doses): no evidence of nephrotoxicity | dose-limiting toxicity (DLT) ([3]; cycle 1): Neutropenia | Other toxicities Grades 1–2, patients ([3]; dose 32 mg/m^2, Hyperbilirubinemia (UR)): 1 | Other toxicities Grades 1–2, patients ([3]; dose 32 mg/m^2, Respiratory and thoracic disorder (UR)): 1 | Other toxicities: Type of toxicity and grade ([3]; dose 32 mg/m^2): Respiratory and thoracic disorder (UR); also recorded: Hyperbilirubinemia (UR) | Other toxicities Grades 1–2, patients ([3]; dose 42 mg/m^2, Retroperitoneal hematoma (UR)): 1 | Other toxicities: Type of toxicity and grade ([3]; dose 42 mg/m^2): Retroperitoneal hematoma (UR) | Other toxicities Grades 1–2, patients ([3]; dose 56 mg/m^2, Acute pancreatitis (UR)): 1 | Other toxicities Grades 1–2, patients ([3]; dose 56 mg/m^2, Hyperbilirubinemia (UR)): 1 | Other toxicities: Type of toxicity and grade ([3]; dose 56 mg/m^2): Acute pancreatitis (UR); also recorded: Hyperbilirubinemia (UR) | Neutropenia All grades, patients ([3]; dose 75 mg/m^2, 3 patients): 1 | Neutropenia All grades, patients ([3]; dose 100 mg/m^2, 3 patients): 1 | Other toxicities Grades 1–2, patients ([3]; dose 100 mg/m^2, Complete left lung atelectasy (UR)): 1 | Other toxicities: Type of toxicity and grade ([3]; dose 100 mg/m^2): Complete left lung atelectasy (UR) | Neutropenia All grades, patients ([3]; dose 133 mg/m^2, 4 patients): 3 | Other toxicities Grades 1–2, patients ([3]; dose 133 mg/m^2, Hyperbilirubinemia (UR)): 1 | Other toxicities: Type of toxicity and grade ([3]; dose 133 mg/m^2): Hyperbilirubinemia (UR) | Neutropenia All grades, patients ([3]; dose 177 mg/m^2, 3 patients): 1 | Other toxicities: Type of toxicity and grade ([3]; dose 177 mg/m^2): Vomiting (R), diarrhea (R), and nausea (R) | Other toxicities Grades 1–2, patients ([3]; dose 177 mg/m^2, Vomiting (R), diarrhea (R), and nausea (R)): 1 | Neutropenia All grades, patients ([3]; dose 236 mg/m^2, 4 patients): 1 | Neutropenia Grades 3–4, patients ([3]; dose 236 mg/m^2, 4 patients): 1 | Other toxicities Grades 1–2, patients ([3]; dose 236 mg/m^2, Edema of lower limb (UR)): 1 | Other toxicities: Type of toxicity and grade ([3]; dose 236 mg/m^2): Edema of lower limb (UR); also recorded: Vomiting (R) and diarrhea (R) | Other toxicities Grades 1–2, patients ([3]; dose 236 mg/m^2, Vomiting (R)): 1 | Other toxicities Grades 3–4, patients ([3]; dose 236 mg/m^2, Vomiting (R) and diarrhea (R)): 1 | Neutropenia All grades, patients ([3]; dose 313 mg/m^2, 6 patients): 6 | Neutropenia Grades 3–4, patients ([3]; dose 313 mg/m^2, 6 patients): 4 | Other toxicities Grades 3–4, patients ([3]; dose 313 mg/m^2, Diarrhea (R)): 1 | Other toxicities Grades 1–2, patients [3, 9]: 1 | Other toxicities Grades 3–4, patients [3, 9]: 1 | Other toxicities: Type of toxicity and grade ([3]; dose 313 mg/m^2): Diarrhea (R); also recorded: Hyperbilirubinemia (UR) | Neutropenia All grades, patients ([3]; dose 416 mg/m^2, 6 patients): 6 | Neutropenia Grades 3–4, patients ([3]; dose 416 mg/m^2, 6 patients): 4 | Other toxicities: Type of toxicity and grade ([3]; dose 416 mg/m^2): Vomiting (UR), pyrexia (UR), and chills (R) | Other toxicities Grades 1–2, patients ([3]; dose 416 mg/m^2, Vomiting (UR), pyrexia (UR), and chills (R)): 1 | Abdominal pain: Number of patients with ≥1 adverse event [3, 10]: 8 | Abdominal pain: Total (%) [3, 10]: 19.0% | Alanine aminotransferase elevation increased: Number of patients with ≥1 adverse event [3, 10]: 5 | Alanine aminotransferase elevation increased: Total (%) [3, 10]: 11.9% | Alopecia: Number of patients with ≥1 adverse event [3, 10]: 8 | Alopecia: Total (%) [3, 10]: 19.0% | Anemia: Number of patients with ≥1 adverse event [3, 10]: 13 | Anemia: Total (%) [3, 10]: 31.0% | Anorexia: Number of patients with ≥1 adverse event [3, 10]: 9 | Anorexia: Total (%) [3, 10]: 21.4% | Ascites: Number of patients with ≥1 adverse event [3, 10]: 5 | Ascites: Total (%) [3, 10]: 11.9% | Asthenia: Number of patients with ≥1 adverse event [3, 10]: 18 | Asthenia: Total (%) [3, 10]: 42.9% | Constipation: Number of patients with ≥1 adverse event [3, 10]: 6 | Constipation: Total (%) [3, 10]: 14.3% | Cough: Number of patients with ≥1 adverse event [3, 10]: 5 | Cough: Total (%) [3, 10]: 11.9% | Diarrhea: Number of patients with ≥1 adverse event [3, 10]: 17 | Diarrhea: Total (%) [3, 10]: 40.5% | Dyspnea: Number of patients with ≥1 adverse event [3, 10]: 9 | Hypoalbuminemia: Number of patients with ≥1 adverse event [3, 10]: 5 | Hypoalbuminemia: Total (%) [3, 10]: 11.9% | Leukopenia: Number of patients with ≥1 adverse event [3, 10]: 6 | Leukopenia: Total (%) [3, 10]: 14.3% | Lymphopenia: Number of patients with ≥1 adverse event [3, 10]: 7 | Lymphopenia: Total (%) [3, 10]: 16.7% | Nausea: Number of patients with ≥1 adverse event [3, 10]: 18 | Nausea: Total (%) [3, 10]: 42.9% | Neutropenia: Number of patients with ≥1 adverse event [3, 10]: 8 | Neutropenia: Total (%) [3, 10]: 19.0% | Pyrexia: Number of patients with ≥1 adverse event [3, 10]: 7 | Pyrexia: Total (%) [3, 10]: 16.7% | Rash: Number of patients with ≥1 adverse event [3, 10]: 9 | Rash: Total (%) [3, 10]: 21.4% | Vomiting: Number of patients with ≥1 adverse event [3, 10]: 14 | Vomiting: Total (%) [3, 10]: 33.3% | Weight decreased >10%: Number of patients with ≥1 adverse event [3, 10]: 5 | Weight decreased >10%: Total (%) [3, 10]: 11.9% | recommended Phase II dose (RP2D) ([3]; iv 2-hour infusion every 2 weeks): 313 mg/m^2 | maximum tolerated dose (MTD) ([3]; iv every 2 weeks, patients with advanced/metastatic solid tumors): 313 mg/m^2 | objective response ([4]; 42 patients): No patient | median progression-free survival ([4]; 95% CI 3–17 months): 11 months | patients with stable disease status maintained for six cycles or longer ([4]; in vivo): seven | changes in QRS morphology or interval measurements ([5]; all doses): no clinically significant drug-related changes | instances of postdose QTc >450 ms ([5]; all doses): four | instances of postdose QTc >500 ms ([5]; all doses): no instances | QTc at the end of dosing ([5]; one patient, 416 mg/m^2, cycle 3, predose QTc 391 ms): 484 ms | resolution of immediate effects resembling an infusion reaction [6]: resolved spontaneously within a few hours | severity of immediate effects resembling an infusion reaction [6]: moderate severity | solubility in water [7]: highly soluble | Tmax ([8]; 3 mg/m2): 0.25 h | Tmax ([8]; 6 mg/m2): 1 h | Tmax ([8]; 12 mg/m2): 0.97 h | Tmax ([8]; 24 mg/m2): 0.98 h | Tmax ([8]; 32 mg/m2): 1.11 h | Tmax ([8]; 42 mg/m2): 1.32 h | Tmax ([8]; 56 mg/m2): 0.96 h | Tmax ([8]; 75 mg/m2): 1.44 h | Tmax ([8]; 100 mg/m2): 1.31 h | Tmax ([8]; 133 mg/m2): 0.99 h | Tmax ([8]; 177 mg/m2): 1.45 h | Tmax ([8]; 235 mg/m2): 1.27 h | AUC(0-inf) ([8]; 313 mg/m2): 439 µg·h/mL | Tmax ([8]; 313 mg/m2): 1.68 h | Tmax ([8]; 416 mg/m2): 2.47 h
